This note sets out measurements from patent publication US20240376225A1 (CHILDREN S MEDICAL CENTER, published 2024).

Assay [1] addresses T1, human CD21 on Raji B cells or primary B cells (human, UniProt P20023 21-1033).
T1 sequence (looked up): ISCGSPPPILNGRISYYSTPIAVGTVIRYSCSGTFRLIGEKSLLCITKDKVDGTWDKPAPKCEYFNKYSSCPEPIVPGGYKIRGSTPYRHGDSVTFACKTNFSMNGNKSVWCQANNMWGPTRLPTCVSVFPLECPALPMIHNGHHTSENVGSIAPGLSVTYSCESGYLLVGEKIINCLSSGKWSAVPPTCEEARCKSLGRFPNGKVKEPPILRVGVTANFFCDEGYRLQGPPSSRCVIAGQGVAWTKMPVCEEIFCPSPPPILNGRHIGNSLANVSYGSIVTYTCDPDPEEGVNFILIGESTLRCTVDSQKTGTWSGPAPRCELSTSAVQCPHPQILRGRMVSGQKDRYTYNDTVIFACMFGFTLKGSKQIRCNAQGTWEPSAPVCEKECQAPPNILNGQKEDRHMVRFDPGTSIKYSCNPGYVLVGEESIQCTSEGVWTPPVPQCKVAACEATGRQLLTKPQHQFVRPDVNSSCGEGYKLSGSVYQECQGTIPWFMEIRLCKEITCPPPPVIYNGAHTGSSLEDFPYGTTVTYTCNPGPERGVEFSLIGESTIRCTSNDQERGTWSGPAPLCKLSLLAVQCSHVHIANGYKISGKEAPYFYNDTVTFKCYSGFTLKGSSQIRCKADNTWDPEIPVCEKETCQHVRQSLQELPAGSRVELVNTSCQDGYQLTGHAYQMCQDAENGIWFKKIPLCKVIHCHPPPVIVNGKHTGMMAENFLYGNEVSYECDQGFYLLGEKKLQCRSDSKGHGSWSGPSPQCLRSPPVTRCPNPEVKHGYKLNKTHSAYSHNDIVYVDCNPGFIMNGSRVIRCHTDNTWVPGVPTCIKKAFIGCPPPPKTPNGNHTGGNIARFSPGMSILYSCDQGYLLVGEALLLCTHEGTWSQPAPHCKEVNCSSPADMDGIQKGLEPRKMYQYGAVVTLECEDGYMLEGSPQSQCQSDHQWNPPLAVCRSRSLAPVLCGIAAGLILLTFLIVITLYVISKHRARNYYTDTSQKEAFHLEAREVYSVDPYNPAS
The assay is described as follows: cell-based or functional assay.

Assay [2] addresses T2, human CD21 protein (human, UniProt P20023 21-971, limits assumed).
T2 construct: the Biacore set-up is not described; also called huCD21; CR2
T2 sequence (looked up): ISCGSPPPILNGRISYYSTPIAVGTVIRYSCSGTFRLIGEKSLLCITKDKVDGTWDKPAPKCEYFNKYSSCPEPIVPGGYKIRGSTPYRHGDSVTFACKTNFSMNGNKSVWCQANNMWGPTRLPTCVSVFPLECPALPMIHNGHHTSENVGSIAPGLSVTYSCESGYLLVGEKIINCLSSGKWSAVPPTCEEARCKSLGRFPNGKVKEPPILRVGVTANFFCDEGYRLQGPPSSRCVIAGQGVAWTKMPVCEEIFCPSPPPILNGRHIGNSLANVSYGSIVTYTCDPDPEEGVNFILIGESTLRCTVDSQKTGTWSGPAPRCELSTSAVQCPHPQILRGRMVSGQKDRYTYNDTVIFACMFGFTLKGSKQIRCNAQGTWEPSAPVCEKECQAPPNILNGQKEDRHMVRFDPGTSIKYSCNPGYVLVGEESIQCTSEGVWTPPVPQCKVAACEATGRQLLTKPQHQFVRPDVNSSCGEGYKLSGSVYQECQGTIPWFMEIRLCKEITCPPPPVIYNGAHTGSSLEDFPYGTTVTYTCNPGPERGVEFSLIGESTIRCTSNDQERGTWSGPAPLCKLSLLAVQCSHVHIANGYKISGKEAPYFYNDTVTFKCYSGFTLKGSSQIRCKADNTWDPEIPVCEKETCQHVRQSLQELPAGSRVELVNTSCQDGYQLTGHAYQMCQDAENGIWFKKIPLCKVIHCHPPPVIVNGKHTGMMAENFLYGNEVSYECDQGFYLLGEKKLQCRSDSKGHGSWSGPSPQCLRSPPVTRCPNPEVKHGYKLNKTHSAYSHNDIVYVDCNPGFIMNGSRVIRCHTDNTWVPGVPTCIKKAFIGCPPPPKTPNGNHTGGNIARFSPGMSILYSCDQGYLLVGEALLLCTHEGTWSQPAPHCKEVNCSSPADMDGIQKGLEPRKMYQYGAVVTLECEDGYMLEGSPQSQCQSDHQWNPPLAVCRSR
The assay is described as follows: SPR (Biacore).

In assay [3] the target is T2, human CD21 protein. The assay is described as follows: affinity KD; method not restated (Biacore elsewhere). For orientation: Surface plasmon resonance follows binding to a sensor surface in real time, without labels.
Assay [4] has as its target T1, human CD21 on Raji B cells or primary B …. The assay is described as follows: cell-based or functional assay. This is another data set of the same source.
In assay [5] the target is cyno CD21 protein (cynomolgus monkey). In words: affinity KD; method not restated (Biacore elsewhere).
The target in assay [6] is insulin (UniProt P01308). In words: polyreactivity ELISA on coated insulin; third number of the cell. On the technique in general: An ELISA detects its analyte on a solid surface through an enzyme-linked reagent.
The target in assay [7] is cyno CD21 protein (cynomolgus monkey). In words: SPR (Biacore).

As usually defined, the Kd is the concentration at which binding is half-saturated. A high value points to lower affinity.

Substitutions are numbered along the chain they refer to. Read-outs that look alike come from different tables or passages of the source.

Chain of insulin (P01308 25-54 limits assumed, chain 1 of 2): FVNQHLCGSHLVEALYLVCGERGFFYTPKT
Chain of insulin (P01308 90-110 limits assumed, chain 2 of 2): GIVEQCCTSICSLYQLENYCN

B1: Ab416 (antibody, human IgG1, kappa, V domains shown)
VH: QVQLVQSGAEVKKPGSSVKVSCKASGGTFSSYAISWVRQAPGQGLEWMGRIIPILGIANYAQKFQGRVTITADKSTSTAYMELSSLRSEDTAVYYCAREDDSSGYYQDWGQGTLVTVSS
VL: EIVMTQSPATLSVSPGERATLSCRAGQSINSYLAWYQQKPGQAPRLLIYDASTRATGIPARFSGSGSGTEFTLTISSLQSEDFAVYYCQQYEYWYTFGQGTKLEIKR
notes: IgG1
For B1, the “pAKT inhibition, IC50, nM; Primary B cells” value in assay [1] and in assay [4] was 14.6 nM throughout. For the same molecule, the “pAKT inhibition, IC50, nM; Raji B cells” value in assay [1] and in assay [4] was 8.59 nM throughout. Moreover, the Kd was 0.78 nM in assay [2], 0.78 nM in assay [3], 9.73 nM in assay [5] and 9.13 nM in assay [7]. For the same molecule, in assay [6], the insulin-binding score (ratio to buffer well) is 2.

B2: Ab424 (antibody, human IgG1, kappa, V domains shown)
VH: B1 VH with S31T, S102I
VL: B1 VL
notes: IgG1
For B2, the “pAKT inhibition, IC50, nM; Primary B cells” value in assay [1] and in assay [4] was 11.6 nM each time. For the same molecule, the “pAKT inhibition, IC50, nM; Raji B cells” value in assay [1] and in assay [4] was 9.38 nM in each case. For the same molecule, the Kd in assay [2] is 0.05 nM; in assay [3], 0.05 nM; in assay [5], 0.03 nM; in assay [7], 0.03 nM. Besides, the insulin-binding score (ratio to buffer well) in assay [6] worked out at 2.

B3: Ab633 (antibody, human IgG1, kappa, V domains shown)
VH: B1 VH with D100E, S102I
VL: B1 VL with N30S, S31R, T53S, T96S
notes: IgG1
Turning to B3, the Kd in assay [3] amounted to 0.02 nM; in assay [5], 0.12 nM.

B4: Ab421 (antibody, human IgG1, kappa, V domains shown)
VH: B1 VH with S31T, S102I
VL: B1 VL with Y32H
notes: IgG1
For B4, the “pAKT inhibition, IC50, nM; Primary B cells” value in assay [1] and in assay [4] was 56.2 nM in each case. The “pAKT inhibition, IC50, nM; Raji B cells” value in assay [1] and in assay [4] was 8.59 nM in each case. In addition, the Kd in assay [2] stood at 2.26 nM; in assay [3], 2.26 nM; in assay [5], 0.25 nM; in assay [7], 0.25 nM. Moreover, the insulin-binding score (ratio to buffer well) in assay [6] amounted to 2.

B5: Ab420 (antibody, human IgG1, kappa, V domains shown)
VH: B1 VH with S102I
VL: B1 VL with Y32H
notes: IgG1
As to B5, the “pAKT inhibition, IC50, nM; Primary B cells” value in assay [1] and in assay [4] was 61.1 nM each time. Further, the “pAKT inhibition, IC50, nM; Raji B cells” value in assay [1] and in assay [4] was 26.2 nM throughout. Besides, the Kd in assay [2] turned out to be 2.26 nM; in assay [3] it was 2.26 nM; in assay [5] it was 0.22 nM; in assay [7] it was 0.22 nM. Moreover, in assay [6], the insulin-binding score (ratio to buffer well) came out at 2.

B6: Ab627 (antibody, human IgG1, kappa, V domains shown)
VH: B1 VH with D100E, S102I
VL: B1 VL with S28K, N30S, T96S
notes: IgG1
As for B6, the Kd in assay [3] was 0.02 nM; in assay [5] it was 0.15 nM.

B7: Ab629 (antibody, human IgG1, kappa, V domains shown)
VH: B1 VH with D100E, S102I
VL: B1 VL with N30S, S31R, T96S
notes: IgG1
For the molecule B7, the Kd in assay [3] came to 0.02 nM; in assay [5] it was 0.1 nM.

B8: Ab422 (antibody, human IgG1, kappa, V domains shown)
VH: B1 VH with T28E, F29L, S30Q, S31T, Y32L, S102I
VL: B1 VL
notes: IgG1
On to B8, for which the “pAKT inhibition, IC50, nM; Primary B cells” value in assay [1] and in assay [4] was 9.98 nM in each case. Moreover, the “pAKT inhibition, IC50, nM; Raji B cells” value in assay [1] and in assay [4] was 15.8 nM in each case. Also, the Kd in assay [2] was 0.04 nM; in assay [3], 0.04 nM; in assay [5], 0.24 nM; in assay [7], 0.24 nM. Also, the insulin-binding score (ratio to buffer well) in assay [6] turned out to be 2.

B9: Ab419 (antibody, human IgG1, kappa, V domains shown)
VH: B1 VH with T28E, F29L, S30Q, S31T, Y32L, S102I
VL: B1 VL with Y32H
notes: IgG1
Consider B9, for which the “pAKT inhibition, IC50, nM; Primary B cells” value in assay [1] and in assay [4] was 47.8 nM each time. Further, the “pAKT inhibition, IC50, nM; Raji B cells” value in assay [1] and in assay [4] was 11.2 nM each time. Besides, the dissociation constant Kd in assay [2] stood at 2.38 nM; in assay [3], 2.38 nM; in assay [5] it was 0.21 nM; in assay [7], 0.21 nM. Further, the insulin-binding score (ratio to buffer well) in assay [6] was determined as 2.

B10: Ab632 (antibody, human IgG1, kappa, V domains shown)
VH: B1 VH with D100E, S102I
VL: B1 VL with N30S, S31H, T53S, T96S
notes: IgG1
On to B10, for which the “pAKT inhibition, IC50, nM; Primary B cells” value in assay [1] was found to be 4.43 nM. For the same molecule, the Kd in assay [3] was determined as 0.01 nM; in assay [5], 0.08 nM.

B11: Ab630 (antibody, human IgG1, kappa, V domains shown)
VH: B1 VH with D100E, S102I
VL: B1 VL with E1D, N30S, T53S, T96S
notes: IgG1
With B11, the dissociation constant Kd in assay [3] is 0.01 nM; in assay [5] it was 0.09 nM.

B12: Ab628 (antibody, human IgG1, kappa, V domains shown)
VH: B1 VH with D100E, S102I
VL: B1 VL with N30S, S31H, T96S
notes: IgG1
In the case of B12, the “pAKT inhibition, IC50, nM; Primary B cells” value in assay [1] amounted to 11.7 nM. Moreover, the Kd in assay [3] came to 0.01 nM; in assay [5] it was 0.11 nM.

B13: Ab417 (antibody, human IgG1, kappa, V domains shown)
VH: B1 VH with T28E, F29L, S30Q, S31D, Y32L, S102I
VL: B1 VL
notes: IgG1
B13: the “pAKT inhibition, IC50, nM; Primary B cells” value in assay [1] and in assay [4] was 3.94 nM throughout. The “pAKT inhibition, IC50, nM; Raji B cells” value in assay [1] and in assay [4] was 8.91 nM throughout. Further, the dissociation constant Kd is 0.02 nM in assay [2], 0.02 nM in assay [3], 0.08 nM in assay [5] and 0.08 nM in assay [7]. Also, the insulin-binding score (ratio to buffer well) in assay [6] was 2.

B14: Ab631 (antibody, human IgG1, kappa, V domains shown)
VH: B1 VH with D100E, S102I
VL: B1 VL with S28K, N30S, T53S, T96S
notes: IgG1
Regarding B14, the values for the Kd in assay [3] and in assay [5] were 0.03 nM and 0.19 nM, respectively.
